Data published in US20240197902A1.
Like-named read-outs stand apart in the source and are kept apart here.

What was measured:
Experiment in all cases: cell-based or functional assay
BMP9 [1] = target: T1, BMP9 (UniProt Q9UK05)
T1 sequence (looked up): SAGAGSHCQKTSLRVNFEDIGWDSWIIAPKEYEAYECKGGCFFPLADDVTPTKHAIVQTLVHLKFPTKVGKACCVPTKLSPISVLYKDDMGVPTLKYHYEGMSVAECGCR

GDF11 [2] = target: T2, GDF11 (UniProt O95390)
T2 sequence (looked up): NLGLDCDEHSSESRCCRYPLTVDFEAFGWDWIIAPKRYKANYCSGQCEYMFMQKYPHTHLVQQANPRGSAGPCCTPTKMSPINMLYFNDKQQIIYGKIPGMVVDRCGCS

activin A [3] = target: T3, activin A (UniProt P08476)
T3 sequence (looked up): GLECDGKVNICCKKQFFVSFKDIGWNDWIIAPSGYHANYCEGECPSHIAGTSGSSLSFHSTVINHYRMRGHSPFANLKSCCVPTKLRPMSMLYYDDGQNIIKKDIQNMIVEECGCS

BMP9 [4] = target: BMP9 (UniProt Q9UK05); remark: listed apart in the source
GDF11 [5] = target: GDF11 (UniProt O95390); remark: listed apart in the source
activin A [6] = target: activin A (UniProt P08476); remark: listed apart in the source
BMP10 [7] = target: BMP10 (UniProt O95393)
GDF11 [8] = target: GDF11 (UniProt O95390); remark: listed apart in the source
GDF8 [9] = target: GDF8 (UniProt O14793)
activin A [10] = target: activin A (UniProt P08476); remark: listed apart in the source
activin B [11] = target: activin B (UniProt P09529)
BMP10 [12] = target: T4, BMP10 (UniProt O95393); remark: listed apart in the source
T4 sequence (looked up): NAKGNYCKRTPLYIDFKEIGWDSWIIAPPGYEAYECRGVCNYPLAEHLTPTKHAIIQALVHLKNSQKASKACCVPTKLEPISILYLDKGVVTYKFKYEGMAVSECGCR

BMP9 [13] = target: T1, BMP9; remark: listed apart in the source
GDF11 [14] = target: T2, GDF11; remark: listed apart in the source
GDF8 [15] = target: T5, GDF8 (UniProt O14793); remark: listed apart in the source
T5 sequence (looked up): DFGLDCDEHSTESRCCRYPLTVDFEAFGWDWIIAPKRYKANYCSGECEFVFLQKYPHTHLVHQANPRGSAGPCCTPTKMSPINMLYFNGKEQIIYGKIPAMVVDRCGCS

activin A [16] = target: T3, activin A; remark: listed apart in the source
activin B [17] = target: T6, activin B (UniProt P09529); remark: listed apart in the source
T6 sequence (looked up): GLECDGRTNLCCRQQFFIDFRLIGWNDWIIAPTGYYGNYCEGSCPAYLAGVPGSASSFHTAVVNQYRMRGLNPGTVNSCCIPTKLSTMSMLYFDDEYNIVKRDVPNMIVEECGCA

Chain of ActRIIB(20-134)-G1Fc (Fc fusion) (chain): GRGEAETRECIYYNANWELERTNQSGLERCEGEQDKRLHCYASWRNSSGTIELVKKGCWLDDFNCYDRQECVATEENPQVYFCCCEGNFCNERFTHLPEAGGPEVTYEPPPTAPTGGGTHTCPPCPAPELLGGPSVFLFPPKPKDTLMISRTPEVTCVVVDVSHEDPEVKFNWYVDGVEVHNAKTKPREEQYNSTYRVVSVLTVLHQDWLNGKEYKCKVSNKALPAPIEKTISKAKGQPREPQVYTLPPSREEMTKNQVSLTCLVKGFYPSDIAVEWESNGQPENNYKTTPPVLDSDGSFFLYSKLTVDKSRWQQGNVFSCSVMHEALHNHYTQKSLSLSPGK

Row | Substance | IC50, A204 CAGA12 reporter gene assay (BMP9 [1]) | IC50, A204 CAGA12 reporter gene assay (GDF11 [2]) | IC50, A204 CAGA12 reporter gene assay (activin A [3]) | other results
1 | variant ActRIIB-Fc polypeptide K55D (Fc fusion) | 5.5 µg/mL | 0.365 µg/mL | 0.396 µg/mL | –
2 | variant ActRIIB-Fc polypeptide E50P (Fc fusion) | 3 µg/mL | 0.638 µg/mL | 0.756 µg/mL | –
3 | ActRIIB(F82K)-G1Fc (Fc fusion) | – | – | – | IC50, A204 CAGA12 reporter gene assay (BMP9 [4]): 5 µg/mL; IC50, A204 CAGA12 reporter gene assay (GDF11 [5]): 0.015 µg/mL; IC50, A204 CAGA12 reporter gene assay (activin A [6]): 0.01 µg/mL
4 | variant ActRIIB-Fc polypeptide E52A (Fc fusion) | 0.359 µg/mL | 0.071 µg/mL | 0.198 µg/mL | –
5 | variant ActRIIB-Fc polypeptide E50K (Fc fusion) | 0.721 µg/mL | 0.18 µg/mL | 0.132 µg/mL | –
6 | variant ActRIIB-Fc polypeptide R40A (Fc fusion) | 1.21 µg/mL | 0.591 µg/mL | – | –
7 | ActRIIB(F82I)-G1Fc (Fc fusion) | – | – | – | IC50, A204 CAGA12 reporter gene assay (BMP9 [4]): 0.277 µg/mL; IC50, A204 CAGA12 reporter gene assay (GDF11 [5]): 0.009 µg/mL; IC50, A204 CAGA12 reporter gene assay (activin A [6]): 0.011 µg/mL
8 | variant ActRIIB-Fc polypeptide Y60P (Fc fusion) | – | 0.544 µg/mL | – | –
9 | variant ActRIIB-Fc polypeptide K55R (Fc fusion) | 0.777 µg/mL | 0.318 µg/mL | 0.206 µg/mL | –
10 | ActRIIB(K55E)-G1Fc (Fc fusion) | – | – | – | IC50, A204 CAGA12 reporter gene assay (BMP9 [4]): 0.29 µg/mL; IC50, A204 CAGA12 reporter gene assay (GDF11 [5]): 0.014 µg/mL; IC50, A204 CAGA12 reporter gene assay (activin A [6]): 0.019 µg/mL
11 | ActRIIB(F82T)-G1Fc (Fc fusion) | – | – | – | IC50, A204 CAGA12 reporter gene assay (BMP10 [7]): 0.07 nM; IC50, A204 CAGA12 reporter gene assay (GDF11 [8]): 0.27 nM; IC50, A204 CAGA12 reporter gene assay (GDF8 [9]): 2.17 nM; IC50, A204 CAGA12 reporter gene assay (activin A [10]): 0.1 nM; IC50, A204 CAGA12 reporter gene assay (activin B [11]): 0.09 nM
12 | variant ActRIIB-Fc polypeptide L79K (Fc fusion) | – | 0.477 µg/mL | – | –
13 | variant ActRIIB-Fc polypeptide Y60K (Fc fusion) | – | 0.414 µg/mL | – | –
14 | ActRIIB(K55A)-G1Fc (Fc fusion) | – | – | – | IC50, A204 CAGA12 reporter gene assay (BMP9 [4]): 0.122 µg/mL; IC50, A204 CAGA12 reporter gene assay (GDF11 [5]): 0.011 µg/mL; IC50, A204 CAGA12 reporter gene assay (activin A [6]): 0.015 µg/mL

Second part, led by results:

Row | IC50, A204 CAGA12 reporter gene assay (BMP9 [1]) | IC50, A204 CAGA12 reporter gene assay (GDF11 [2]) | IC50, A204 CAGA12 reporter gene assay (activin A [3]) | Substance | other results
15 | 40 µg/mL | 0.389 µg/mL | – | variant ActRIIB-Fc polypeptide F82W/N83A (Fc fusion) | –
16 | – | 0.234 µg/mL | – | variant ActRIIB-Fc polypeptide L79R (Fc fusion) | –
17 | 0.409 µg/mL | 0.099 µg/mL | 0.128 µg/mL | variant ActRIIB-Fc polypeptide A24N (Fc fusion) | –
18 | 10 µg/mL | 0.296 µg/mL | 0.762 µg/mL | variant ActRIIB-Fc polypeptide E52K (Fc fusion) | –
19 | – | 0.276 µg/mL | – | variant ActRIIB-Fc polypeptide F82W (Fc fusion) | –
20 | 0.031 µg/mL | 0.009 µg/mL | 0.008 µg/mL | ActRIIB(20-134)-G1Fc (Fc fusion) | IC50, A204 CAGA12 reporter gene assay (BMP10 [12]): 0.036 nM; IC50, A204 CAGA12 reporter gene assay (BMP9 [13]): 1.82 nM; IC50, A204 CAGA12 reporter gene assay (GDF11 [14]): 0.12 nM; IC50, A204 CAGA12 reporter gene assay (GDF8 [15]): 0.95 nM; IC50, A204 CAGA12 reporter gene assay (activin A [16]): 0.05 nM; IC50, A204 CAGA12 reporter gene assay (activin B [17]): 0.067 nM
21 | 0.165 µg/mL | 0.045 µg/mL | – | variant ActRIIB-Fc polypeptide K74R (Fc fusion) | –
